Target: BD-G72(95-153) (UniProt P59103)
Assay: two-hybrid; β-galactosidase activity of AH109 transformants grown in SD/-2 broth at 30 °C, normalised to yeast with the AD and BD tags alone

Sequence of BD-G72(95-153) (P59103 95-153): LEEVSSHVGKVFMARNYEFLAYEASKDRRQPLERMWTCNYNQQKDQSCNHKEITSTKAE

β-galactosidase activity as percent of AD-DAO/BD-G72: 38%
β-galactosidase activity relative to the BD/AD tag baseline: 1.81 fold
Substance: AD-DAO (D-amino acid oxidase N-terminally tagged with the activation domain) (from UniProt P14920 1-347) (enzyme)

Reference: publication PMC3907796
